Data set [1] has as its system 40S ribosomal subunit, Rps5-E144R;eIF1;eIF1A;eIF2 WT. The data set is described as follows: EMSA (native gel). The conditions noted are these: methionylated; T7 transcript; 30 mM Hepes-KOH pH 7.4, 100 mM KOAc, 3 mM Mg(OAc)2, 2 mM DTT, 26°C; 1 nM [35S]-Met-tRNAi, 200-250 nM eIF2, 1 uM eIF1 and eIF1A, 100 uM GDPNP (Kd assays), mRNA …. Background: Mobility shift assays separate free from complexed probe on a gel.

In data set [2] the test system is 40S ribosomal subunit, Rps5-R148E;eIF1;eIF1A;eIF2 WT. The data set is described as follows: EMSA (native gel). The conditions noted are these: methionylated; T7 transcript; 30 mM Hepes-KOH pH 7.4, 100 mM KOAc, 3 mM Mg(OAc)2, 2 mM DTT, 26°C; 1 nM [35S]-Met-tRNAi, 200-250 nM eIF2, 1 uM eIF1 and eIF1A, 100 uM GDPNP (Kd assays), mRNA ….
Data set [3] has as its system 40S ribosomal subunit, WT Rps5;eIF1;eIF1A;eIF2 WT. The data set is described as follows: EMSA (native gel). The following applies: methionylated; T7 transcript; 30 mM Hepes-KOH pH 7.4, 100 mM KOAc, 3 mM Mg(OAc)2, 2 mM DTT, 26°C; 1 nM [35S]-Met-tRNAi, 200-250 nM eIF2, 1 uM eIF1 and eIF1A, 100 uM GDPNP (Kd assays), mRNA ….
Data set [4] relates to 40S ribosomal subunit, Rps5-R148E;eIF1;eIF1A;eIF2 WT. The data set is described as follows: EMSA kinetics (dissociation). The conditions noted are these: methionylated; T7 transcript; 30 mM Hepes-KOH pH 7.4, 100 mM KOAc, 3 mM Mg(OAc)2, 2 mM DTT, 26°C; 1 nM [35S]-Met-tRNAi, 200-250 nM eIF2, 1 uM eIF1 and eIF1A, 100 uM GDPNP (Kd assays), mRNA ….
Data set [5] concerns 40S ribosomal subunit, Rps5-R148E;eIF1;eIF1A;eIF2 with eIF2beta-S264Y (SUI3-2). The data set is described as follows: EMSA kinetics (dissociation). The following applies: methionylated; T7 transcript; 30 mM Hepes-KOH pH 7.4, 100 mM KOAc, 3 mM Mg(OAc)2, 2 mM DTT, 26°C; 1 nM [35S]-Met-tRNAi, 200-250 nM eIF2, 1 uM eIF1 and eIF1A, 100 uM GDPNP (Kd assays), mRNA ….
Data set [6] deals with 40S ribosomal subunit, WT Rps5;eIF1;eIF1A;eIF2 with eIF2beta-S264Y (SUI3-2). The data set is described as follows: EMSA kinetics (dissociation). The following applies: methionylated; T7 transcript; 30 mM Hepes-KOH pH 7.4, 100 mM KOAc, 3 mM Mg(OAc)2, 2 mM DTT, 26°C; 1 nM [35S]-Met-tRNAi, 200-250 nM eIF2, 1 uM eIF1 and eIF1A, 100 uM GDPNP (Kd assays), mRNA ….
Data set [7] has as its system 40S ribosomal subunit, Rps5-E144R;eIF1;eIF1A;eIF2 WT. The data set is described as follows: EMSA kinetics (Kd = koff/kon). The following applies: methionylated; T7 transcript; 30 mM Hepes-KOH pH 7.4, 100 mM KOAc, 3 mM Mg(OAc)2, 2 mM DTT, 26°C; 1 nM [35S]-Met-tRNAi, 200-250 nM eIF2, 1 uM eIF1 and eIF1A, 100 uM GDPNP (Kd assays), mRNA ….
Data set [8] deals with 40S·eIF1·eIF1A complex assembled with Rps5-R148E mutant 40S subunits (yeast (S. cerevisiae), UniProt P26783 1-225; P32911 1-108; P38912 1-153, R148E).

Where only a bound is given, the exact number is not on record here.

Regarding initiator Met-tRNAi, the Kd in data set [1], in data set [2] and in data set [3] was below 1 nM in each case. Also, the binding signal (fold higher koff than WT 40S) in data set [4] turned out to be 2; in data set [5], 4. The binding signal (fold lower koff than with WT eIF2) in data set [6] was determined as 3. In data set [7], this molecule showed a binding signal (fold lower affinity than WT 40S) of 40.

B1: eIF2∙GTP∙Met-tRNAi ternary complex (TC), wild-type eIF2 (complex)
chain 1: MSTSHCRFYENKYPEIDDIVMVNVQQIAEMGAYVKLLEYDNIEGMILLSELSRRRIRSIQKLIRVGKNDVAVVLRVDKEKGYIDLSKRRVSSEDIIKCEEKYQKSKTVHSILRYCAEKFQIPLEELYKTIAWPLSRKFGHAYEAFKLSIIDETVWEGIEPPSKDVLDELKNYISKRLTPQAVKIRADVEVSCFSYEGIDAIKDALKSAEDMSTEQMQVKVKLVAAPLYVLTTQALDKQKGIEQLESAIEKITEVITKYGGVCNITMPPKAVTATEDAELQALLESKELDNRSDSEDDEDESDDE
chain 2: MSSDLAAELGFDPALKKKKKTKKVIPDDFDAAVNGKENGSGDDLFAGLKKKKKKSKSVSADAEAEKEPTDDIAEALGELSLKKKKKKTKDSSVDAFEKELAKAGLDNVDAESKEGTPSANSSIQQEVGLPYSELLSRFFNILRTNNPELAGDRSGPKFRIPPPVCLRDGKKTIFSNIQDIAEKLHRSPEHLIQYLFAELGTSGSVDGQKRLVIKGKFQSKQMENVLRRYILEYVTCKTCKSINTELKREQSNRLFFMVCKSCGSTRSVSSIKTGFQATVGKRRRM
chain 3: MSDLQDQEPSIIINGNLEPVGEPDIVEETEVVAQETQETQDADKPKKKVAFTGLEEDGETEEEKRKREFEEGGGLPEQPLNPDFSKLNPLSAEIINRQATINIGTIGHVAHGKSTVVRAISGVQTVRFKDELERNITIKLGYANAKIYKCQEPTCPEPDCYRSFKSDKEISPKCQRPGCPGRYKLVRHVSFVDCPGHDILMSTMLSGAAVMDAALLLIAGNESCPQPQTSEHLAAIEIMKLKHVIILQNKVDLMREESALEHQKSILKFIRGTIADGAPIVPISAQLKYNIDAVNEFIVKTIPVPPRDFMISPRLIVIRSFDVNKPGAEIEDLKGGVAGGSILNGVFKLGDEIEIRPGIVTKDDKGKIQCKPIFSNIVSLFAEQNDLKFAVPGGLIGVGTKVDPTLCRADRLVGQVVGAKGHLPNIYTDIEINYFLLRRLLGVKTDGQKQAKVRKLEPNEVLMVNIGSTATGARVVAVKADMARLQLTSPACTEINEKIALSRRIEKHWRLIGWATIKKGTTLEPIA
In the case of B1, in data set [8], binding was characterised by a dissociation constant (Kd) of 101 nM.

As a reminder, the Kd is a measure of binding affinity in units of concentration. Higher therefore signals lower affinity.

For the origin of these results see paper PMC4513230 (2015).
